Holding throughout (test): EMSA
Data set [1] has as its target T1, ΔN20C17-HMGA1a (human, UniProt P17096 21-91).
The target in data set [2] is T1, ΔN20C17-HMGA1a. The source holds these as a separate data set.
Data set [3] addresses T1, ΔN20C17-HMGA1a. This is another data set of the same source.
Data set [4] deals with T1, ΔN20C17-HMGA1a. The source holds these as a separate data set.
The target in data set [5] is T2, ΔN20C17-HMGA1b (human, UniProt P17096-2 21-80).
The target in data set [6] is T1, ΔN20C17-HMGA1a. The source holds these as a separate data set.
In data set [7] the target is T2, ΔN20C17-HMGA1b. The source holds these as a separate data set.
Data set [8] addresses T1, ΔN20C17-HMGA1a. The source holds these as a separate data set.

Read-outs that look alike come from different tables or passages of the source.

The record followed here is publication PMC3778555.

B1: A9T9-DNA (dsDNA)
DNA 1: CGAAAAAAAAATTTTTTTTTCG
DNA 2: CGAAAAAAAAATTTTTTTTTCG
Turning to B1, the binding result in the data set with ΔN20C17-HMGA1a [1] is “binds”.

B2: A5-DNA (dsDNA)
DNA 1: GGCCCCGCGAAAAACCCGGCGGG
DNA 2: CCCGCCGGGTTTTTCGCGGGGCC
For the molecule B2, the binding result with ΔN20C17-HMGA1a [2] was “binds”.

B3: T9A9-DNA (dsDNA)
DNA 1: GCTTTTTTTTTAAAAAAAAAGC
DNA 2: GCTTTTTTTTTAAAAAAAAAGC
For the molecule B3, the binding result in the data set with ΔN20C17-HMGA1a [3] is reported as “binds”.

B4: A19-DNA (dsDNA)
DNA 1: CCCAAAAAAAAAAAAAAAAAAACC
DNA 2: GGTTTTTTTTTTTTTTTTTTTGGG
In the case of B4, the binding result with ΔN20C17-HMGA1a [4] and with ΔN20C17-HMGA1b [5] was “binds” in each case.

B5: A5T5-DNA (dsDNA)
DNA 1: CGAAAAATTTTTCG
DNA 2: CGAAAAATTTTTCG
In the case of B5, the binding result in the data set with ΔN20C17-HMGA1a [6] and with ΔN20C17-HMGA1b [7] was “binds” in each case.

B6: A18-DNA (dsDNA)
DNA 1: CCCAAAAAAAAAAAAAAAAAACC
DNA 2: GGTTTTTTTTTTTTTTTTTTGGG
Take B6: in the data set with ΔN20C17-HMGA1a [8], the binding result is “binds”.
